According to US20210024625A1 (published 2021):

T1: PfRH5 from Plasmodium falciparum strain 3D7 (Plasmodium falciparum, UniProt Q8IFM5 25-526)
T1 sequence: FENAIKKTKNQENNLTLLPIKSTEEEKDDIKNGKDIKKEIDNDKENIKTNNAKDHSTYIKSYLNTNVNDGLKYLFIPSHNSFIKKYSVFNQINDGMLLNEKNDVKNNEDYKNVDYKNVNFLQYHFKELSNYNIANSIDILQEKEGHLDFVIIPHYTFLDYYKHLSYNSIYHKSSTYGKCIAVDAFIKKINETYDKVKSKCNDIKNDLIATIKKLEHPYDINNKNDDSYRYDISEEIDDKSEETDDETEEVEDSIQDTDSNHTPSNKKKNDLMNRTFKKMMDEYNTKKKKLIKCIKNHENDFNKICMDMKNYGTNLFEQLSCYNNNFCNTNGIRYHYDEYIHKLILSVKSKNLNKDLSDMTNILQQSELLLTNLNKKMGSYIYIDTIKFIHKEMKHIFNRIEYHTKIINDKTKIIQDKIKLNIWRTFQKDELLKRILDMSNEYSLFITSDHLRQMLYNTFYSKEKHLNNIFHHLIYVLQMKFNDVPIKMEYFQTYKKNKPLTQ

B1: H1H29109P (antibody, V domains shown)
VH: EVQLVESGGGLVQPGRSLRLSCAVSGFTFDDYAMHWVRQAPGKGLEWVSGISWNSGDIDYADSVKGRFTISRDNAKNSLYLQMNSLRAEDTALYYCAKDTLSGTGTTWYYFDYWGQGTLVTVSS
VL: DIQLTQSPSFLSASVGDRVTITCWASQGISSYLIWYQQKPGKAPKLLIYAASTLQSGVPSRFSGSGSGTEFTLTISSLQPEDFATYYCQQVNSYPLTFGGGTKVEIKR
B2: H1H29094P (antibody, V domains shown)
VH: not shown
VL: DIQMTQSPSSLSASVGDRVTITCQASQDINRDLNWYQQKSGKGPKLLIYDASNLETGVPSRFSGNRFGTDFTFTISRLQPEDIATYFCQQYKNLPYTFGQGTKLEIKR
B3: H1H29166P2 (antibody, V domains shown)
VH: EVQLVESGGGLLQPGRSLRLSCVASGFTFDDYAMHWVRQAPGKGLEWVSGISWNSESIGYADSVRGRFTISRDNAKNSLYLQMNSLRAEDTALYYCAKAPYSGTYFEYFRHWGQGTLVTVSS
VL: not shown
B4: H1H29187P2 (antibody, V domains shown)
VH: QVQLVESGGGVVQPGRFLRLSCAASGFTFSNSGMHWVRQAPGKGLEWVAGIWHDGSYKYYVDSVKGRFTISRDNSKNTLFLQMNSLRAEDTAVYYCARDDYYASGTSVDVWGQGTTVTVSS
VL: not shown
B5: H1H29127P (antibody, V domains shown)
VH: QVQLVESGGGVVQPGRSLRLSCAASGFTFSSYGMHWVRQAPGKGLEWVAAIWYDGSNKYYADSVKGRFTISRDNSKNTLYLQMNSLRAEDTAVYFCARGEHYYGSGPFDPWGQGTLVTVSS
VL: DIQMTQSPSSLSASVGDRVTITCRASQSISNYLNWYQQKPGKAPKLLIFAASSLQSGVPSRFSGSGSGTDFTLTISSLQPEDFATYYCQQSYSSPLTFGGGTKVEIKR
B6: H1H29171P2 (antibody, V domains shown)
VH: QVQLVESGGGVVQPGRSLRLSCAASGFTFSSYGMHWVRQAPGKGLEWVAVISYDGSNKYYADSVKGRFTISRDNSKNTLYLQMNSLRAEDTAVYYCAKDDWNYDAFDIWGQGTMVTVSS
VL: not shown
B7: H1H29151P2 (antibody, V domains shown)
VH: QVQLVESGGGLVKPGGSLRLSCAASGFTFSDYYMNWVRQAPGKGLEWVSYISNSGNTQYYADSVKGRFTISRDNAKNSLFLQMNSLRAEDTAVYYCTREGLEYSSSEPFDYWGQGTLVTVSS
VL: not shown
B8: H1H29143P (antibody, V domains shown)
VH: EVQLVESGGGLVQPGGSLRLSCAASGFTFNNYAMSWVRQAPGRGLEWVSAISGSGDSTYYSDSVKGRFTISRDNSKNTLYLQMNSLRAEDTAVYYCAKDQGLYYYGSGSFDYWGQGTLVTVSS
VL: not shown
B9: H1H29183P2 (antibody, V domains shown)
VH: QVQLVQSGPEVKKPGASVKVSCKASGYTFTSYGISWVRQAPGQGLEWLGWISGFNGRTDYTEKLQDRITMTTDRSSSTAYMELRSLRYDDTAVYYCARDGLEKLGDYWGQGTLVTVSS
VL: not shown
B10: H1H29106P (antibody, V domains shown)
VH: QVQLVESGGGVVQSGRSLRLSCAASSFTFSSYGMHWVRQSPGKGLEWVAVISYDGSNKYYGDFVRGRFTISRDNSKNTLYLQMNSLRAEDTAMYYCAREVRRYYYYGMDVWGQGTTVTVSS
VL: not shown
B11: H1H29104P (antibody, V domains shown)
VH: EVQLVESGGGLVQPGRSLRLSCAASGFRFDDYAMHWVRQAPGKGLEWVSGINWNSGGKGYADSVQGRFTISRDNAKNSLYLQMNSLRTEDTALYYCAKDRGIAARLLSRDAFDMWGQGTMVTVSS
VL: DIQLTQSPSFLSASVGDRVTITCWASQDVSSYLAWYQQKPGKSPKLLIFAASTLQGGIPSRFSGSGSGTEFTLTISSLRPEDFATYYCQHLNTYPYTFGQGTKLEIKR
B12: H1H29179P2 (antibody, V domains shown)
VH: QVQLQESGPGLVKPSQTLSLTCTVSGGSISSSGYYWSWIRQHPGRGLEWIGYIYYSGSTYYNPSLKSRVTISVDTSKNQFSLKLNSVTAADTAVYYCARVDYGSGSSFDYWGQGTLVTVSS
VL: not shown

Experiments:
Experiment in all cases: cell-based or functional assay
[1] = biological target: PfRH5 from Plasmodium falciparum strain D10 (Plasmodium falciparum)
[2] = biological target: T2, PfRH5 from Plasmodium falciparum strain Dd2 (Plasmodium falciparum)
[3] = biological target: T3, PfRH5 from Plasmodium falciparum strain 7G8 (Plasmodium falciparum)
[4] = biological target: PfRH5 from Plasmodium falciparum strain W2-mef (Plasmodium falciparum)
[5] = biological target: T1, PfRH5 from Plasmodium falciparum strain …
[6] = biological target: PfRH5 from Plasmodium falciparum strain HB3 (Plasmodium falciparum)
[7] = biological target: T4, PfRH5 from Plasmodium falciparum strain FCR-1/FVO (Plasmodium falciparum)
[8] = biological target: PfRH5 from Plasmodium falciparum strain Cam3.II (Plasmodium falciparum)
[9] = biological target: PfRH5 from Plasmodium falciparum strain RF7 (Plasmodium falciparum)
[10] = biological target: T3, PfRH5 from Plasmodium falciparum strain …; remark: listed apart in the source
[11] = biological target: T1, PfRH5 from Plasmodium falciparum strain …; remark: listed apart in the source
[12] = biological target: T4, PfRH5 from Plasmodium falciparum strain …; remark: listed apart in the source
[13] = biological target: T2, PfRH5 from Plasmodium falciparum strain …; remark: listed apart in the source

| Binder | Max growth inhibition (%) [1] [%] | Max growth inhibition (%) [2] [%] | Max growth inhibition (%) [3] [%] | Max growth inhibition (%) [4] [%] | Max growth inhibition (%) [5] [%] | Max growth inhibition (%) [6] [%] | Max growth inhibition (%) [7] [%] | Max growth inhibition (%) [8] [%] | Max growth inhibition (%) [9] [%] | Max growth inhibition (%), Chloroquine Phosphate N/A [10] [%] | Max growth inhibition (%), Chloroquine Phosphate N/A [11] [%] | Percent Maximum Growth Inhibition, mAb (6.67 µM) + AHIS (10%) [12] [%] | Percent Maximum Growth Inhibition, mAb (6.67 µM) + ANS (10%) [12] [%] | Percent Maximum Growth Inhibition, mAb (6.67 µM) + HHIS (10%) [12] [%] | Percent Maximum Growth Inhibition, mAb (6.67 µM) + HNS (10%) [12] [%] | Percent Maximum Growth Inhibition, mAb (6.67 µM) + No serum [12] [%] | Maximum growth inhibition (%) [13] [%] |
| --- | --- | --- | --- | --- | --- | --- | --- | --- | --- | --- | --- | --- | --- | --- | --- | --- | --- |
| B1 | 44.8 | 42 | 39 | 37.9 | 32.2 | 32.2 | 56.7 | 35.9 | 8.24 |  |  |  |  |  |  |  |  |
| B2 | 35.9 | 41.6 | 29.9 | 34.9 | 14.4 | 45.4 | 51.2 | 26.2 | 15.2 |  |  |  |  |  |  |  |  |
| B3 | 70.9 | 60 | 54.6 | 61.9 | 53.1 | 54.9 | 69.7 | 55.9 | 19.4 |  |  |  |  |  |  |  |  |
| B4 | 79.6 | 66 |  | 67.3 | 70.7 | 63.9 | 72.2 | 49.2 | 32.7 | 49.3 | 47.6 | 89.4 | 80.1 | 85.4 | 85.9 | 85.3 |  |
| B5 | 74.4 | 64.7 | 61.2 | 53.6 | 63.9 | 59.4 | 61.1 | 47 | 25.7 |  |  |  |  |  |  |  | 56.9 |
| B6 | 10.6 | 7.71 | 17 | 0.74 | 4.04 | 0.52 | 11.7 | 5.45 | -12.5 |  |  |  |  |  |  |  |  |
| B7 | 38.7 | 58 | 47.5 | 53.9 | 35.5 | 31.7 | 53.7 | 26.3 | 18.3 |  |  |  |  |  |  |  |  |
| B8 | 79.4 | 62.7 | 61.9 | 58.3 | 60.3 | 60.9 | 67.2 | 53.2 |  |  |  |  |  |  |  |  | 56 |
| B9 | 6.79 | 0.68 | 17.8 | -0.55 | 5.68 | 4.92 | 16.1 | 8.66 | -6.27 |  |  |  |  |  |  |  |  |
| B10 | 74.9 | 54 | 55.5 | 48.9 | 58 | 48.4 | 54.3 | 51.7 | 27.4 |  |  |  |  |  |  |  |  |
| B11 | 55.7 | 61.3 | 35.2 | 47.4 | 34.4 | 39.8 | 67.4 | 50 | 23.6 |  |  |  |  |  |  |  | 54.1 |
| B12 | 62.5 | 13.5 | 34.1 | 22.9 | 24.2 | 40.9 | 49 | 33.4 | -2.99 |  |  |  |  |  |  |  |  |
